Read-outs that look alike come from different tables or passages of the source.
Assays:
[1] = target: human coagulation factor X (FX), full-length zymogen (human) (UniProt P00742)
[2] = target: human coagulation factor X (FX), full-length zymogen (human) (UniProt P00742); test: SPR (Biacore T100); human FX immobilised on CM5 chip, inhibitor injected; heterogeneous ligand model
[3] = target: mouse coagulation factor X (mouse) (UniProt O88947); test: SPR (Biacore T100); mouse FX immobilised on CM5 chip, inhibitor injected; heterogeneous ligand model
Chain of mouse coagulation factor X (mouse) (O88947 41-481 limits assumed): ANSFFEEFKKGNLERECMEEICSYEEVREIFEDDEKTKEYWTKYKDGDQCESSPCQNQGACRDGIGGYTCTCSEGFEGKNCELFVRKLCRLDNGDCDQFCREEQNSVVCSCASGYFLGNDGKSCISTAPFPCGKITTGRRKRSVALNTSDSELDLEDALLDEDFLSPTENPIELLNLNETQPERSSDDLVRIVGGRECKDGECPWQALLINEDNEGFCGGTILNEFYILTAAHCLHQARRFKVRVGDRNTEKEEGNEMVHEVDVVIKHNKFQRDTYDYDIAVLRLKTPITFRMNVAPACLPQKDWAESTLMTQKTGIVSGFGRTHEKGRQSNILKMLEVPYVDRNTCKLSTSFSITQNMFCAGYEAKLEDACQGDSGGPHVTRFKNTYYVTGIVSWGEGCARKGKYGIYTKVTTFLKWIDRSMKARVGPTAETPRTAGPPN

Chain of human coagulation factor X (FX), full-length zymogen (human) (P00742 41-488 limits assumed): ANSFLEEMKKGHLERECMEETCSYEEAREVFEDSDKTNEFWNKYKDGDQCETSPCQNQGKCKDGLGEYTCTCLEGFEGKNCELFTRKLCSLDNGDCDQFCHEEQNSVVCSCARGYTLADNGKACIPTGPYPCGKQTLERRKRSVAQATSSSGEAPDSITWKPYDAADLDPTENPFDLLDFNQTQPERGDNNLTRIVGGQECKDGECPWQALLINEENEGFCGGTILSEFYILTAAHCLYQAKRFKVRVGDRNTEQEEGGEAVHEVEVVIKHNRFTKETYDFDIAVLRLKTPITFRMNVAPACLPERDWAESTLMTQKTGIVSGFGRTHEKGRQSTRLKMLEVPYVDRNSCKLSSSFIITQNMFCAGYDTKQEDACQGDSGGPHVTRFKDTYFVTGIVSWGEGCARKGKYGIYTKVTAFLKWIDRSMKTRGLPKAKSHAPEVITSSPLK
Chain of Ixolaris, 12 kDa two-Kunitz domain protein isolated from tick salivary gland (Q964Q0 27-165 limits assumed): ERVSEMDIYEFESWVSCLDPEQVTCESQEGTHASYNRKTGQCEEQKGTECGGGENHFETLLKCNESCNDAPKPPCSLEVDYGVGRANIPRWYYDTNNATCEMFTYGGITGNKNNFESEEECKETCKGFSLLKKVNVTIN

Substance: Ixolaris, 12 kDa two-Kunitz domain protein isolated from tick salivary gland (from UniProt Q964Q0 27-165) (other; other documents disagree on this pair)
- Kd [1]: 1.3 nM
- koff [1]: 0.000175 s⁻¹
- kon [1]: 135000 M⁻¹ s⁻¹

Substance: nematode anticoagulant peptide-2 (NAPc2)
- Kd [2]: 0.0728 nM
- koff [2]: 0.000623 s⁻¹
- kon [2]: 8.6e+06 M⁻¹ s⁻¹
- Kd [3]: 17 nM
- koff [3]: 0.31 s⁻¹
- kon [3]: 1.8e+07 M⁻¹ s⁻¹

Reference: patent publication US20110104788A1
